In patent US20260265316A1, “IMMUNOTHERAPEUTIC METHODS, COMPOUNDS, AND COMPOSITIONS FOR TREATING OR PREVENTING CELIAC DISEASE” (DBV Technologies, priority 2023, published 2026):
Substitutions are numbered along the chain they refer to.

B1: QLQPFPQPELPYPQPELPYPQPELPYPQPQPGPRRKKPQPEQPEQPFPEQPQGARRKKPQQPFPQPEQPFPWQPQGPKKPSGEGSFQPSQENPQ (peptide)
chain: QLQPFPQPELPYPQPELPYPQPELPYPQPQPGPRRKKPQPEQPEQPFPEQPQGARRKKPQQPFPQPEQPFPWQPQGPKKPSGEGSFQPSQENPQ
B2: QLQPFPQPELPYPQPELPYPQPELPYPQPQPKKKKPQPEQPEQPFPEQPQKKKKPQQPFPQPEQPFPWQPQKKKKPSGEGSFQPSQENPQ (peptide)
chain: QLQPFPQPELPYPQPELPYPQPELPYPQPQPKKKKPQPEQPEQPFPEQPQKKKKPQQPFPQPEQPFPWQPQKKKKPSGEGSFQPSQENPQ
B3: QLQPFPQPELPYPQPELPYPQPELPYPQPQPGPRRKKPQPEQPEQPFPEQPQGCRRKKPQQPFPQPEQPFPWQPQGPKKPSGEGSFQPSQENPQ (peptide)
chain: B1 chain with A54C

Columns and labels:
Experiment in all cases: IFN-γ ELISpot T cell clone assay
Format in all cases: cell-based, human
[1] = test system: 3072 1.26 (DQ2.5-glia-α1a specific) T cell clone; conditions: 10 μM, 3072 1.26 clone
[2] = test system: 3007.28 (DQ2.5-glia-α2 specific) T cell clone; conditions: 10 μM, 3007.28 clone
[3] = test system: 0482 1.2 clone (DQ8-glia-α-specific); conditions: 10 μM
Description: (§1) FIGS. 12A-12E are graphs depicting the evaluation of the ability of gliadin polypeptides (Cv6, Av6, and 4K) to reactivate gluten-specific T cell clones isolated from CeD patients and specific for a selection of key gliadin epitopes (i.e., DQ2.5-glia-α1a (A), DQ2.5-glia-α2 (B), DQ2.5-glia-ω1 […], DQ2.5-glia-ω2 (D), and DQ8-glia-α1 […]), by IFN-γ ELISpot assay. The three gliadin polypeptide constructs Cv6, Av6, and 4K were incubated overnight at three different molarities ([…]) with irradiated PBMCs, and five T-cell clones originally isolated from HLA-DQ2^+ or HLA-DQ8^+ CeD patients. T cells clones were specific for either DQ2.5-glia-α1a (A), DQ2.5-glia-α2 (B), DQ2.5-glia-ω1 (C), DQ2.5-glia-ω2 (D) or DQ8-glia-α1 (E) epitopes. Spots were detected with IFN-γ-biotinylated antibody and streptavidin-ALP complex and counted using an AID ELISpot reader. Data are expressed as mean Spot Forming Units (SFU) per well of 3 replicate wells+SD.
(§2) For that purpose, five individual CD4^+ T cell clones specific for a selection of key gliadin epitopes have been used. The experimental readout was the enumeration of IFN-γ producing T-cells (Th1 cells) by ELISpot, as previously described: Hardy M Y, et al., J Autoimmun 2015; 56:56-65; Anderson et al., Clinical & Experimental Immunology, 2021, Issue 3, June 2021, Pages 321-334, the entire contents of each of which are incorporated by reference herein.
(§3) For this in vitro assay, irradiated peripheral blood mononuclear cells (PBMCs) isolated from the blood of healthy donors matching for HLA-DQ2.5 or HLA-DQ8 were used as a source of APCs.
(§4) As a positive control for antigen-specific T cell stimulation, the cognate gliadin-derived immunogenic peptide known to activate each CD4^+ T cell clone was used, as described in the literature (Sollid et al., Immunogenetics, 2020 February; 72(1-2):85-88; Tye-Din et al., Sci Transl Med, 2010, Vol. 2, Issue 41, 41-51, the entire contents of each of which are incorporated by reference herein). Negative controls consisted of cells treated with a cocktail of four irrelevant peptides of the following sequence: PFPLPQP (SEQ ID NO:87), PQYQPEQ (SEQ ID NO:88), PFEPQPL (SEQ ID NO:89), and PQSYPEQ (SEQ ID NO:90).

[4] = test system: 3177 2.27 (DQ2.5-glia-ω1 specific) T cell clone; conditions: 10 μM, 3177 2.27 clone
Description: as §1, §2, §3, §4

[5] = test system: 0177 2.61 (DQ2.5-glia-ω2 specific) T cell clone; conditions: 10 μM, 0177 2.61 clone

Molecule	mean spot forming units (IFN-γ ELISpot) [1]	mean spot forming units (IFN-γ ELISpot) [2]	mean spot forming units (IFN-γ ELISpot) [3]	mean spot forming units (IFN-γ ELISpot) [4]	mean spot forming units (IFN-γ ELISpot) [5]
B1	183	122	201	21	12
B2	177	109	175	14	11
B3	159	117	173	15	16
